Measured values as given in US10245299B2, “Autoassembling peptides for the treatment of pulmonary bulla” (3-D MATRIX, LTD., priority 2014, dated 2019).
Where no end group is shown, it is not given here.

Assays:
Type in all cases: physicochemical
[1] = Rheological properties at adjusted salt ionic strength; settings: for ionic strength adjustment up to which the rheological property of the solution increases (decreases above): 1% solutions, storage modulus at 1 rad/sec
Experimental: Based on the visual observation of the effect of salt ionic strength on the properties of the peptide solutions, the effect on the rheological properties of the peptide solutions after adjusting their ionic strength level with NaCl to 0.7 M (PuraMatrix®), 0.2 M (KLD12) or 0.02 M (IEIK13), which is closely below the critical ionic strength at which each peptide becomes cloudy, was evaluated. If the ionic strength levels with NaCl of peptide solutions are higher than 0.9 M (PuraMatrix®), 0.3 M (KLD12) or 0.03 M (IEIK13), the peptide solution begin phase separation becoming cloudy and weak. The rheological property of PuraMatrix®, KLD12 and IEIK13 solutions was higher after adjusting their ionic strength level with NaCl to 0.7 M (PuraMatrix®), 0.2 M (KLD12) or 0.02 M (IEIK13), The results are shown in FIG. 10 for KLD12 1%, FIG. 11 for IEIK13 1%, and FIG. 12 for PuraMatrix® 1%, respectively. Frequency sweep tests were performed from 1 rad/s to 10 rad/s at 1 Pa.
Based on the results of the effect on the rheological properties of the peptide solutions after adjusting their ionic strength level with NaCl to 0.7 M (PuraMatrix®), 0.2 M (KLD12) or 0.02 M (IEIK13), the effect on the rheological properties of the peptide solution at various salt ionic strengths was evaluated. […] The results are shown in FIG. 13 for PuraMatrix® 1% solution and in FIG. 14 for IEIK13 1% solution. Frequency sweep tests were performed from 1 rad/sec to 10 rad/sec at 1 Pa and the storage modulus at 1 rad/sec was selected for data.
Based on the results of the effect on the rheological properties of the peptide solutions after adjusting their ionic strength levels, the effect on the rheological properties of the peptide hydrogels after DMEM treatment for 10 min was evaluated. […] The results are shown in FIG. 15 for PuraMatrix® 1% hydrogels and in FIG. 16 for IEIK13 1% hydrogels, both after DMEM treatment for 10 min. Frequency sweep tests were performed from 1 rad/sec to 10 rad/sec at 1 Pa and the storage modulus at 1 rad/sec was selected for data.
Based on the results of the effect on the rheological properties of the peptide solutions and hydrogels after adjusting their ionic strength levels with NaCl, the effect of various salts (KCl, MgCl2, and CaCl2) was also evaluated. The rheological property of PuraMatrix® solutions increases with ionic strength adjustment at 0.15 M of all the salts. Increases of the rheological property of PuraMatrix® solutions with various salts were not predominantly different. However, increases of the rheological property of PuraMatrix® solutions may vary depending on the salting out constant, K of each salt. Constant K is a constant in Cohen's equation: log S=B−KI, where S is solubility, B is idealized solubility, K is salting out constant, and I is ionic strength. With a higher value of constant K and ionic strength of salts, solubility of the peptide may decrease resulting in strong peptide self-assembly with increased hydrophobic effect and higher rheological properties of the peptide solution. The constant K of NaCl may be higher than the other salts. […] The results are shown in FIG. 17 for PuraMatrix® 1% solution before DMEM treatment, and in FIG. 18 for PuraMatrix® 1% hydrogels after DMEM treatment for 10 min.
In accordance with one or more embodiments, IEIK13, KLD12, and PuraMatrix® may be dissolved both in salt buffer such as NaCl and at an elevated pH level adjusted with alkali salt buffer such as NaOH to keep their salt ionic strength under their critical salt points as well as their pH level to about 2.5˜4.0, so that they may have stiffer properties. With respect to PuraMatrix®, […] and IEIK13, the peptide solutions are still clear with 0.9% NaCl (ionic strength: 0.15 M) at pH 3.4 adjusted with NaOH. […] The effect of salt ionic strength and pH adjustment on the rheological properties of PuraMatrix® 2.5% solution are shown in FIG. 20. […]

[2] = pH and appearance of 2.5% peptide solutions after adding 0.1 N NaOH
Experimental: To adjust the pH level of the peptide solutions by way of example, 0.1 N NaOH was added to 2 mL of 2.5% peptide solutions and their pH and appearance were measured.

[3] = Rheological properties of pH adjusted peptide solutions and hydrogels; settings: KLD12 1%, IEIK13 1%, PuraMatrix® 1% and 2.5%
Experimental: Based on the visual observation of the effect of pH level on the properties of the peptide solutions, the effect on the rheological properties of the peptide solutions after adjusting their pH level to 3.4 (PuraMatrix® and KLD12) or 3.7 (IEIK13) was evaluated. If the pH levels of peptide solutions are higher than 3.5 (PuraMatrix® and KLD12) or 3.7 (IEIK13), the peptide solution began phase separation becoming cloudy. The rheological properties of PuraMatrix®, KLD12 and IEIK13 solutions were higher at pH 3.4. The results are shown in FIG. 2 for KLD12 1%, FIG. 3 for IEIK13 1%, and FIGS. 4-5 for PuraMatrix® 1% and 2.5%, respectively. Stress sweep tests were performed at 10 rad/s. Frequency sweep tests were performed at 1 Pa.
Based on the results of the effect on the rheological properties of the peptide solutions after adjusting their pH level to 3.4 (PuraMatrix® and KLD12) or 3.7 (IEIK13), the effect on the rheological properties of the peptide solutions at various pH levels was evaluated. […] The rheological properties of peptides were evaluated at various concentrations using a rheometer (DHR-1, TA Instruments) with 20 mm plates. The results are shown in FIG. 6A for PuraMatrix® 2.5% solution and FIG. 6B for IEIK13 1.5% solution, respectively. Frequency sweep tests were performed from 1 rad/sec to 10 rad/sec at 1 Pa and the storage modulus at 1 rad/sec was selected for data.
Based on the results of the effect on the rheological properties of the peptide solutions after adjusting their pH level, the effect on the rheological properties of the peptide hydrogels at various pH after DMEM treatment was evaluated and compared to the effect on the rheological properties of the peptide solutions at various pH before DMEM treatment. […] The results are shown in FIGS. 7A-7B for PuraMatrix® and FIGS. 8A-8B for IEIK (SEQ ID NO: 5), respectively. Frequency sweep tests were performed from 1 rad/sec to 10 rad/sec at 1 Pa and the storage modulus at 1 rad/sec was selected for data.

[4] = 1% hydrogels after DMEM treatment for 10 min
[5] = 0.1N NaOH 150 μL/mL, conc. 2.17%, pH 2.7
[6] = 0.1N NaOH 350 μL/mL, conc. 1.85%, pH 4.5
[7] = 0.1N NaOH added in 2.5% solution 0 μL/mL, conc. 2.5%
[8] = 0.1N NaOH added in 2.5% solution 50 μL/mL, conc. 2.38%
[9] = 0.1N NaOH added in 2.5% solution 100 μL/mL, conc. 2.27%
[10] = 0.1N NaOH added in 2.5% solution 150 μL/mL, conc. 2.17%
[11] = 0.1N NaOH added in 2.5% solution 200 μL/mL, conc. 2.08%
[12] = 0.1N NaOH added in 2.5% solution 250 μL/mL, conc. 2.0%
[13] = 0.1N NaOH added in 2.5% solution 275 μL/mL, conc. 1.96%
[14] = 0.1N NaOH added in 2.5% solution 300 μL/mL, conc. 1.92%
[15] = 0.1N NaOH added in 2.5% solution 350 μL/mL, conc. 1.85%

| Substance | ionic strength adjustment up to which the rheological property of the solution increases (decreases above) [1] | ionic strength level with NaCl above which the solution begins phase separation becoming cloudy and weak [1] | Appearance [2, 5] | Appearance [2, 6] | Peptide solution pH [2, 7] | Peptide solution pH [2, 8] | Peptide solution pH [2, 9] | Peptide solution pH [2, 10] | Peptide solution pH [2, 11] | Peptide solution pH [2, 12] | Peptide solution pH [2, 13] | Peptide solution pH [2, 14] | Peptide solution pH [2, 15] | Appearance ([2]; pH 7.0) | rheological properties of solutions at pH 3.4 [3] | also measured |
| --- | --- | --- | --- | --- | --- | --- | --- | --- | --- | --- | --- | --- | --- | --- | --- | --- |
| Ile-Glu-Ile-Lys-Ile-Glu-Ile-Lys-Ile-Glu-Ile-Lys-Ile [IEIK13] | up to 0.03 M | > 0.03 M | Clear, thick gel, | Cloudy, brittle gel | 1.8 | 2.1 | 2.2 | 2.7 | 3.0 | 3.3 | 3.7 | 4.0 | 4.5 | Cloudy, phase- | higher | rheological property of hydrogels with ionic strength adjustment [1, 4]: did not significantly change with ionic strength adjustment up to 0.025 M, while decreases above 0.03 M; Appearance ([2]; 0.1N NaOH 0 μL/mL, conc. 2.5%, pH 1.8): Clear, thick gel; Appearance ([2]; 0.1N NaOH 50 μL/mL, conc. 2.38%, pH 2.1): Clear, thick gel; Appearance ([2]; 0.1N NaOH 100 μL/mL, conc. 2.27%, pH 2.2): Clear, thick gel; Appearance ([2]; 0.1N NaOH 200 μL/mL, conc. 2.08%, pH 3.0): Clear, thick gel,; Appearance ([2]; 0.1N NaOH 250 μL/mL, conc. 2.0%, pH 3.3): Clear, thick gel,; Appearance ([2]; 0.1N NaOH 275 μL/mL, conc. 1.96%, pH 3.7): Clear, thick,; Appearance ([2]; 0.1N NaOH 300 μL/mL, conc. 1.92%, pH 4.0): Slightly cloudy,; Appearance ([2]; 0.1N NaOH 400 μL/mL, conc. 1.79%, pH 5.4): Cloudy, phase-; Peptide solution pH ([2]; 0.1N NaOH added in 2.5% solution 400 μL/mL, conc. 1.79%): 5.4 |
| Arg-Ala-Asp-Ala-Arg-Ala-Asp-Ala-Arg-Ala-Asp-Ala-Arg-Ala-Asp-Ala [PuraMatrix®] | up to 0.7 M | higher than 0.9 M | Clear, thick, | Cloudy, phase- | 2.2 | 2.3 | 2.4 | 2.7 | 2.9 | 3.2 | 3.4 | 3.6 | 4.5 | Cloudy, phase- | higher | ionic strength adjustment up to which the rheological property of hydrogels increased (decreases above) [1, 4]: up to 0.7 M; rheological property of hydrogels with ionic strength adjustment with various salts ([1]; 1% hydrogels after DMEM treatment for 10 min, 0.15 M ionic strength): comparable to increases of the rheological property of PuraMatrix® solutions with various salts; rheological property of solutions with NaCl compared with other salts ([1]; 1% solution, 0.15 M ionic strength): slightly higher than those with KCl and CaCl2; rheological property of solutions with ionic strength adjustment ([1]; 1% solution, 0.15 M ionic strength of all the salts (NaCl, KCl, MgCl2, CaCl2)): increases; rheological property ([1]; 2.5% solution with 0.9% NaCl (ionic strength: 0.15 M) at pH 3.4): stiffer than those of PuraMatrix control and PuraMatrix with only NaCl 0.9%; Appearance ([2]; 0.1N NaOH 0 μL/mL, conc. 2.5%, pH 2.2): Clear, thick gel; Appearance ([2]; 0.1N NaOH 50 μL/mL, conc. 2.38%, pH 2.3): Clear, thick gel; Appearance ([2]; 0.1N NaOH 100 μL/mL, conc. 2.27%, pH 2.4): Clear, thick gel; Appearance ([2]; 0.1N NaOH 200 μL/mL, conc. 2.08%, pH 2.9): Clear, thick,; Appearance ([2]; 0.1N NaOH 250 μL/mL, conc. 2.0%, pH 3.2): Clear, thick,; Appearance ([2]; 0.1N NaOH 275 μL/mL, conc. 1.96%, pH 3.4): Clear, thick,; Appearance ([2]; 0.1N NaOH 300 μL/mL, conc. 1.92%, pH 3.6): Slightly cloudy, |
| KLDLKLDLKLDL [KLD12] |  | > 0.3 M |  |  | 2.1 | 2.4 | 2.6 | 2.9 | 3.3 | 4.0 |  | 4.7 | 5.2 | Cloudy, phase- | higher | Appearance ([2]; 0.1N NaOH 0 μL/mL, conc. 2.5%, pH 2.1): Clear, thick gel; Appearance ([2]; 0.1N NaOH 50 μL/mL, conc. 2.38%, pH 2.4): Clear, thick gel; Appearance ([2]; 0.1N NaOH 100 μL/mL, conc. 2.27%, pH 2.6): Clear, thick gel; Appearance ([2]; 0.1N NaOH 250 μL/mL, conc. 2.0%, pH 4.0): Slightly cloudy,; Appearance ([2]; 0.1N NaOH 300 μL/mL, conc. 1.92%, pH 4.7): Cloudy, brittle gel; Appearance ([2]; 0.1N NaOH 350 μL/mL, conc. 1.85%, pH 5.2): Cloudy, phase-; Peptide solution pH ([2]; 0.1N NaOH added in 2.5% solution 225 μL/mL, conc. 2.04%): 3.6 |
